Data: patent publication US20060021073A1

Molecular target: Rab3
Test: cell-based or functional assay

wild-type Noc2 expressed from adenovirus Ad-Noc2 wt in pancreatic islets of Noc2-/- mice (from UniProt Q768S4 1-302)
Ca2+-triggered insulin secretion in cultured pancreatic islets of Noc2-/- mice (ng/islet/30 min): 1.2
